B1: Vesicle-associated membrane protein-associated protein SCS2 (Saccharomyces cerevisiae), P40075 (parent)
chain: MSAVEISPDVLVYKSPLTEQSTEYASISNNSDQTIAFKVKTTAPKFYCVRPNAAVVAPGETIQVQVIFLGLTEEPAADFKCRDKFLVITLPSPYDLNGKAVADVWSDLEAEFKQQAISKKIKVKYLISPDVHPAQNQNIQENKETVEPVVQDSEPKEVPAVVNEKEVPAEPETQPPVQVKKEEVPPVVQKTVPHENEKQTSNSTPAPQNQIKEAATVPAENESSSMGIFILVALLILVLGWFYR
partner: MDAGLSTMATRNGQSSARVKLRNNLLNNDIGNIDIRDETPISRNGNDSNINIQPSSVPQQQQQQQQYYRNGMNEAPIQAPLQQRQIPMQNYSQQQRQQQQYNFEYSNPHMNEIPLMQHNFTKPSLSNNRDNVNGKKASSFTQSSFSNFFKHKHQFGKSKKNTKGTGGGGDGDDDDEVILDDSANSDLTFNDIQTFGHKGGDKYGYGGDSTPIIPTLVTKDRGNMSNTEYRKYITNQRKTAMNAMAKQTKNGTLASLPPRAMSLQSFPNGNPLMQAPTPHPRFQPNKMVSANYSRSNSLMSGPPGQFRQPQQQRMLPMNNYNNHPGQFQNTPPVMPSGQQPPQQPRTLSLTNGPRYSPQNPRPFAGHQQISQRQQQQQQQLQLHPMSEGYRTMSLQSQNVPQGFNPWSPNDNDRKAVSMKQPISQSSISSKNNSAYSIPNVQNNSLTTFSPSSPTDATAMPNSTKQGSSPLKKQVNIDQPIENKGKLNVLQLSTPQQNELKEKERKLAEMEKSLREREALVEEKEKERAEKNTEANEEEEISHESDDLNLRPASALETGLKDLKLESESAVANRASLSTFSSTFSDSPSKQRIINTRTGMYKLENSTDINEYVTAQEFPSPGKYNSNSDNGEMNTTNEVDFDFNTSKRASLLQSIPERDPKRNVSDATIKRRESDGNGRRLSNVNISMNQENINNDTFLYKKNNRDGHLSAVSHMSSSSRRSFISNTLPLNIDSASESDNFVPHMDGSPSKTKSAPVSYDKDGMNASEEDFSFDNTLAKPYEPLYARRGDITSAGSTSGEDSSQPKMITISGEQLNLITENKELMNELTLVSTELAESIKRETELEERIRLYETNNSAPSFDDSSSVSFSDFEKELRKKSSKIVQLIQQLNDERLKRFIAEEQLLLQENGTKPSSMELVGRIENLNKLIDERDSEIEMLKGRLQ

Variants of: B1
Conditions: with ym11_yeast ym11, P39523

effect of a mutation on the interaction	Variant
disrupting interaction strength	T42A

— IntAct's records for PubMed 25083872
